In patent US20220048990A1 one finds Kd data, which are given here for two substances.

Assay [1] has as its target T1, Mouse polymeric immunoglobulin receptor (mouse) (UniProt O70570).
T1 sequence (looked up): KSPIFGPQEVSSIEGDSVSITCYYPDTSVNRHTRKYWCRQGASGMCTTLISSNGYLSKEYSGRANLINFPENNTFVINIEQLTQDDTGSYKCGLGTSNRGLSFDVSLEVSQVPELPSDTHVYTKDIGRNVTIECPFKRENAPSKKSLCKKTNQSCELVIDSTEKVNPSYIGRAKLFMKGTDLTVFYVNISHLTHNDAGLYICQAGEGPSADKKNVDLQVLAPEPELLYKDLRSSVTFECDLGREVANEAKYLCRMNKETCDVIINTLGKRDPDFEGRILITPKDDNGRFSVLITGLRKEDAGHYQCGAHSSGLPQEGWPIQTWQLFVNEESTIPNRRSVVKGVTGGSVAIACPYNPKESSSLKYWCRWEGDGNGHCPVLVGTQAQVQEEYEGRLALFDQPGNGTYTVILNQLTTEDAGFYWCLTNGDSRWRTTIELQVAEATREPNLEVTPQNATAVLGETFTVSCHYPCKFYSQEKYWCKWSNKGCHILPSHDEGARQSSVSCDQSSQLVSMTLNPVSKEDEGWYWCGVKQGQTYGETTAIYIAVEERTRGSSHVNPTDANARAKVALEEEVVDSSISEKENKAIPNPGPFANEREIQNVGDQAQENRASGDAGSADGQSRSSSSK
Briefly: SPR (Biacore).

Assay [2] concerns the target Human polymeric immunoglobulin receptor (human) (UniProt P01833). The assay can be described thus: SPR (Biacore).
UniProt P01833, sequence (P01833 19-638 limits assumed): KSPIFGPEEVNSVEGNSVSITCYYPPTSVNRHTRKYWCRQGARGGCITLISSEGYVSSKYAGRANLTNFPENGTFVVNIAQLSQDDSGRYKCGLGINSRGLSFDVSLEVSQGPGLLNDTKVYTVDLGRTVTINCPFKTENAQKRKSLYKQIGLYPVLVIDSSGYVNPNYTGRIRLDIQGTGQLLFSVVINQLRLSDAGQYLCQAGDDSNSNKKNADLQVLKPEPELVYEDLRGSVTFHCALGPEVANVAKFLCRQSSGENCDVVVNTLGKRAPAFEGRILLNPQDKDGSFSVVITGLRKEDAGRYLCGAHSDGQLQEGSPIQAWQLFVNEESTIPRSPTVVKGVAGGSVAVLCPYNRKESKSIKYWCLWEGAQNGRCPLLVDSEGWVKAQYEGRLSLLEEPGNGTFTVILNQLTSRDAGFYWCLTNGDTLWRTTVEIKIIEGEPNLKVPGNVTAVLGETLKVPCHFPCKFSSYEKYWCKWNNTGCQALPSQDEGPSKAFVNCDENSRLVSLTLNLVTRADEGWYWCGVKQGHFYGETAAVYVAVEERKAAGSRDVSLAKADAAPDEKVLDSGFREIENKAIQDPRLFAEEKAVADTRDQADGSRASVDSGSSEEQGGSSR
Assay [3] addresses T1, Mouse polymeric immunoglobulin receptor (mouse). The assay can be described thus: SPR (Biacore); panel shown again on D00107.
Assay [4] deals with Human FcαRI (human) (UniProt P24071). The assay can be described thus: Wasatch array SPR, antibody immobilised, n>=3.
UniProt P24071, sequence (P24071 22-227 limits assumed): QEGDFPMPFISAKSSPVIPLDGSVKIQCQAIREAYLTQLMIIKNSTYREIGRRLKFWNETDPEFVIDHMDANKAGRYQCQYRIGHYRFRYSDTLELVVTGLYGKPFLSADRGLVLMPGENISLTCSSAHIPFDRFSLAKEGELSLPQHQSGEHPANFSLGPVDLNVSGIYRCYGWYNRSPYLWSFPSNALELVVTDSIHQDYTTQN

Take Glycosylated IgA2m2.Fc only Tetramer: the Kd in assay [1] was determined as 0.79 nM; in assay [2] it was 0.98 nM; in assay [3], 0.79 nM.

In turn, Human serum IgA monomer (antibody) had a dissociation constant Kd in assay [4] of 1750 nM.
